Experimental data published in US20240034786A1 (WUXI BIOLOGICS IRELAND, published 2024).

Columns and labels:
[1] = target: T1, Human P-cadherin on cells (human, UniProt P22223 108-829); experiment: FACS on DU-145 cells
T1 construct: whole, on cells; Endogenous P-cadherin on tumour cell lines; also called hPro1
Experimental: (§1) Binding of the test antibodies to P-cadherin expressed on cells was determined by flow cytometry analysis. […] 1×10⁵ cells/well (100 μL) were added to each well of a 96-well U-plate (Corning, #3799) and centrifuged at 1500 rpm (Eppendorf, #5810R) for 5 minutes before removing the supernatant. Antibodies serially diluted in 1% BSA/1×PBS (Ca+/Mg+) were added at 100 μL/well to the pelleted cells and incubated at 4° C. for 1 hour. Anon-related hIgG1 antibody was used as an isotype control. Cells were washed two times with 180 μL/well of 1% BSA/1×PBS (Ca+/Mg+) by centrifugation at 1500 rpm for 5 minutes at 4° C. Pelleted cells were resuspended in 100 μL/well Alexa647 conjugated Goat anti-human IgG Fc (Jackson, #109-605-098) 1:500 diluted in 1% BSA/1×PBS (Ca+/Mg+) for 30 minutes at 4° C. in the dark. Cells were then washed two times as described above. After the final wash, cells were resuspended in 100 μL 1% BSA/1×PBS (Ca+/Mg+) and fluorescence values were measured with a FACS Canto II cytometer (BD Biosciences). The amount of cell surface bound anti-P-cadherin antibody was assessed by measuring the mean fluorescence (MFI). The FACS raw data were analyzed by FlowJo software, wells containing no antibody or secondary antibody only were used to establish background fluorescence. Binding EC50 values were obtained by the four-parameter non-linear regression analysis using GraphPad Prism6 software.

[2] = target: T1, Human P-cadherin on cells; experiment: FACS on DU-145 cells; remark: listed apart in the source
Experimental: as §1

[3] = target: T1, Human P-cadherin on cells; experiment: FACS on HCT-116 cells
Experimental: as §1
Binding of the antibodies to human P-cadherin expressed on cells was determined by flow cytometry analysis.

[4] = target: T1, Human P-cadherin on cells; experiment: cell-based or functional assay
[5] = target: T1, Human P-cadherin on cells; experiment: cell-based or functional assay; remark: listed apart in the source
[6] = target: T1, Human P-cadherin on cells; experiment: cell-based or functional assay; remark: listed apart in the source
[7] = target: T1, Human P-cadherin on cells; experiment: cell-based or functional assay; remark: listed apart in the source
[8] = target: T1, Human P-cadherin on cells; experiment: FACS on NCI-H1650 cells
Experimental: as §1

[9] = target: T1, Human P-cadherin on cells; experiment: FACS affinity test on DU-145 cells
Experimental: Antibodies to be tested were serially diluted in 1×PBS/1% BSA and incubated with cells at 4° C. for 1 h. The plates were centrifuged and the supernatant was discarded. The cells were then incubated with Alexa647 conjugated goat anti-human IgG Fc (Jackson) at 4° C. in the dark for 30 min. After washing the cells were re-suspended in 100 μL 1×PBS/1% BSA, and fluorescence intensity was measured by flow cytometry (BD Canto II) and analyzed by FlowJo. The fluorescence intensity was converted to bound molecules/cell based on the quantitative beads standard curve (Quantum™ MESF Kits, Bangs Laboratories). KD was calculated by Graphpad Prism5.

[10] = target: T1, Human P-cadherin on cells; experiment: FACS on HCT-116 cells, antibody kept in human serum at 37 C, Day 1
Experimental: (§2) The antibody stability in human serum was tested by FACS. Briefly, human serum was freshly isolated by centrifuging the fresh blood twice at 4000 rpm for 10 minutes. […] As a control, antibodies serum mix was frozen immediately without 37° C. incubation. For the FACS analysis, the samples from different time points were free-thawed simultaneously at 4° C. […] The cells were washed twice with 1% BSA/1×PBS (Ca+/Mg+). Alexa647 conjugated Goat anti-human IgG Fc (Jackson, #109-605-098) 1:500 diluted in 1% BSA/1×PBS (Ca+/Mg+) were added to the cells and incubated at 4° C. for 30 minutes. Cells were washed twice in the same buffer and the mean fluorescence (MFI) of stained cells was measured using a FACS Canto II cytometer (BD Biosciences) and analyzed by FlowJo. Wells containing no antibody or secondary antibody only were used to establish background fluorescence. Four-parameter non-linear regression analysis was used to obtain EC50 values for cell binding using GraphPad Prism6 software.

[11] = target: T1, Human P-cadherin on cells; experiment: FACS on HCT-116 cells, antibody kept in human serum at 37 C, Day 7
Experimental: as §2

T1 sequence (P22223 108-829): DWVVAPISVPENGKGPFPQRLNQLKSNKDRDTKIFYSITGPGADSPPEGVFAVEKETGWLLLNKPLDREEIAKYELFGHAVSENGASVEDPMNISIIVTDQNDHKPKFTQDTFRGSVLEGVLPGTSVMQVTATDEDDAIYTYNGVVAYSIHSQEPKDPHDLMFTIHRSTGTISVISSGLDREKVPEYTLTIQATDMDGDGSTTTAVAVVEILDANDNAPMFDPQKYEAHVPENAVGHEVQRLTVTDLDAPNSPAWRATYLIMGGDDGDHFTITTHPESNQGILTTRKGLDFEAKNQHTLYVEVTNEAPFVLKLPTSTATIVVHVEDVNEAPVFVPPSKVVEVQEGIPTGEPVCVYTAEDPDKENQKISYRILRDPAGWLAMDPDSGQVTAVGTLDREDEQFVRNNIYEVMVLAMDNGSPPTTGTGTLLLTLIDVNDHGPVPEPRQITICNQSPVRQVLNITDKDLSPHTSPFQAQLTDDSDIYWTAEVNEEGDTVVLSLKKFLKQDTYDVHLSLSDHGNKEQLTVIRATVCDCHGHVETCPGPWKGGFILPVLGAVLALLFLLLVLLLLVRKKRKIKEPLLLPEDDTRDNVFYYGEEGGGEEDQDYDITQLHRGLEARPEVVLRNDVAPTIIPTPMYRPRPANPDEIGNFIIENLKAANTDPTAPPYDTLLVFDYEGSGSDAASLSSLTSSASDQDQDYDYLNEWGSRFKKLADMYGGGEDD

EC50 [1]: 0.07 nM
Max MFI [1]: 2100
EC50 [2]: 0.1 nM
Max MFI [2]: 2290
EC50 [3]: 0.15 nM
Max MFI [3]: 4080
internalization, Fab-ZAP CTG assay on HCC-1954, IC50 [4]: 0.02 nM
internalization, HCS assay on HCC-1954, EC50 [5]: 0.029 nM
cell aggregation assay on DU-145, EC50 [6]: 0.39 nM
cell aggregation assay on DU-145, Max Fold change [6]: 1.75 fold
internalization, Fab-ZAP on HCC-1954, IC50 [7]: 0.069 nM
internalization, Fab-ZAP on HCC-1954, Max Inh % [7]: 81%
EC50 [8]: 0.22 nM
Kd [9]: 0.034 nM
EC50 [10]: 0.19 nM
EC50 [11]: 0.21 nM
B1: W3195-1.53.1-p1-uIgG1L (antibody)
heavy: not shown
light: SYELTQPPSVSVSPGQTAQITCSGDKLGDKFASWYQQKSGQSPVVVIYQDNKRPSGFPERFSGSNSGNTATLTISGTQAMDEADYYCQAWDSSIVVFGGGTKLTVLGQPKAAPSVTLFPPSSEELQANKATLVCLISDFYPGAVTVAWKADSSPVKAGVETTTPSKQSNNKYAASSYLSLTPEQWKSHRSYSCQVTHEGSTVEKTVAPTECS
notes: also called W3195-p1 antibody
